What was measured:
[1] = molecular target: T1, mouse CTLA-4 (mouse, UniProt P09793 36-162, limits assumed); test: BLI (Octet), captured mAb, soluble mouse CTLA-4
T1 construct: antigen of the anti-mouse CTLA-4 BLI measurements; also called murine CTLA-4
Method: The binding specificity and affinity of each full-length antibody towards CTLA-4 were determined using biolayer interferometry (BLI) and/or surface plasmon resonance (SPR). Anti-cyno CTLA-4 and anti-mouse CTLA-4 affinities were tested using ForteBio (BLI). Anti-human CTLA-4 affinities were measured using Carterra (SPR).
For BLI, antibodies were loaded onto an Anti-Human IgG Fc (AHC) biosensor using the Octet Red96 system (ForteBio). Loaded biosensors were dipped into antigen dilutions beginning at 300 nM, with 6 serial dilutions at 1:3. Kinetic analysis was performed using a 1:1 binding model and global fitting.

[2] = molecular target: T2, recombinant human CTLA-4-Fc (human, UniProt P16410 36-162); test: blocking ELISA: plate-bound rhCTLA-4-Fc, mAb titrated, rhCD86-His binding detected
T2 construct: bought Fc chimera; also called rhCTLA-4-Fc; rhCTLA-4-Fc chimera; Fc part of the bought chimera not given
T2 sequence (P16410 36-162): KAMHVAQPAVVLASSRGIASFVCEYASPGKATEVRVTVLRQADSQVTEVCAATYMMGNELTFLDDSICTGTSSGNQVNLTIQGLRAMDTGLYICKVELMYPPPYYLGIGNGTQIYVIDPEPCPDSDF
Method: (§1) Plates were coated with rhCTLA-4-Fc and then blocked with 1×PBST with 5% w/v nonfat dry milk. After blocking a dilution series of the indicated antibody was added to the plate.

[3] = molecular target: T2, recombinant human CTLA-4-Fc; test: blocking ELISA: plate-bound rhCTLA-4-Fc, mAb titrated, rhCD80-His binding detected
Method: as §1

[4] = molecular target: human CTLA-4 expressed on cells (human, UniProt P16410 36-223); test: cell-based or functional assay
Chain of human CTLA-4 expressed on cells (P16410 36-223 limits assumed): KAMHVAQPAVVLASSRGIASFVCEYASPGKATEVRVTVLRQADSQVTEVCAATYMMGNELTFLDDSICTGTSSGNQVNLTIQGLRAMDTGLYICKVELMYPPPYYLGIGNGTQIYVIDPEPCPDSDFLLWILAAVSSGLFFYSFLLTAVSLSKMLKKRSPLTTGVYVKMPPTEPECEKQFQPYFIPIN

Binder | CD86% inhibition [2] | CD80% inhibition [3] | Promega assay antagonist (EC50. ug/mL) [4] | binding result [1]
Ipilimumab analog (antibody, human IgG1, V domains shown, also called Ipi analog; in-house produced ipilimumab) VH: QVQLVESGGGVVQPGRSLRLSCAASGFTFSSYTMHWVRQAPGKGLEWVTFISYDGNNKYYADSVKGRFTISRDNSKNTLYLQMNSLRAEDTAIYYCARTGWLGPFDYWGQGTLVTVSSA VL: not shown |  |  |  | no binding (tested: antigen dilutions beginning at 300 nM)
antibody A10 (antibody, human IgG1, V domains shown, full-length human IgG1 (CHO); also called aCTLA-4.22; L10H10) VH: QVQLVESGGGVVQPGRSLRLSCVASGFTLSSYGMHWVRQAPGKGLEWVAVIWYDGSNKHYADSVKGRFTISRDNSKNTLSLQMNSLRAEDTAVYYCARGGQLGPFDYWGQGTLVTVSS VL: not shown |  |  | 0.26 µg/mL | no binding (tested: antigen dilutions beginning at 300 nM)
antibody A11 (antibody, human IgG1, V domains shown, full-length human IgG1 (CHO); also called aCTLA-4.31; L11H11) VH: QVQLVESGGGVVQPGRSLRLSCAASGFTFSSYGMHWVRQAPGKGLEWVAVIWYDVGNKYYIDSVKGRFTISRDNSKNTLYLQMNSLRAEDTAVYYCARDYYGSGSPRHFDYWGQGTLVTVSS VL: DIQLTQSPSFLSASVGDRVTITCRASQGISSYLAWYQQKPGKAPKLLIYAASTLQSGVPSRFSGSGSGTEFTLTISSLQPEDFATYYCQQLNSYPPTFGQGTKVEIK |  |  | 0.42 µg/mL | no binding (tested: antigen dilutions beginning at 300 nM)
antibody A9 (antibody, human IgG1, V domains shown, full-length human IgG1 (CHO); also called aCTLA-4.24; L9H9) VH: QVQLVESGGGVVQPGRSLRLSCAASGFTFSSHGMHWVRQAPGKGLEWVAVIWYDGSNKHYADSVKGRFTISRDNSKNTLYLQMNSLRAEDTAVYYCARGDILTGYYGYWGQGTLVTVSS VL: not shown |  |  | 0.19 µg/mL | no binding (tested: antigen dilutions beginning at 300 nM)
antibody A5 (antibody, V domains shown, full-length human IgG1 (CHO); also called aCTLA-4.28; CTLA4.A5) VH: QVQLVESGGGVVQPGRSLRLSCAASGFTFSSYGMHWVRQAPGKGLEWVAVIWYDGNNKYYADSVKGRFTISRDNSKNTLYLQMYSLRAEDTAVYYCARGGILAAGIFDYWGQGTLVTVSS VL: EIVLTQSPGTLSLSPGDRATLSCRASQSGSSSYLAWYQQKPGQAPRLLIYGASSRATGIPDRFSGSGSGTDFTLTISRLEPEDFAVYYCQQYGTSPFTSGPGTKVDIK | 90.6% | 96.3% | 0.18 µg/mL | 
antibody A4 (antibody, V domains shown, full-length human IgG1 (CHO); also called aCTLA-4.29; L4H4) VH: QVQLVESGGGVVQPGRSLRISCAASGFTFSSYGIHWVRQAPGKGLQWVAVIWYDGRNKYYADSVKGRFTISRDNSKNTLYLQMNSLRAEDTAVYYCSRSGSFGAFDIWGQGTMVTVSS VL: EIVLTQSPGTLSLSPGDRATLSCRASQSGSSSYLAWYQQKPGQAPRLLIYGASSRATGIPDRFSGSGSGTDFTLTISRLEPEDFAVYYCQQYGTSPFTSGPGTKVDIK |  |  | 0.15 µg/mL | no binding (tested: antigen dilutions beginning at 300 nM)
antibody A2 (antibody, human IgG1, V domains shown, full-length human IgG1 (CHO); also called aCTLA-4.4; CTLA4.A2) VH: QVQLVESGGGVVQPGRSLRLSCAASGFTFSNYGMNWVRQAPGKGLEWVAVIWYDGRNKHYADSVKGRFTISRDNSKNTLYLQMNSLRAEDTAVYYCARGGDWGPYFDYWGQGTLVTVSS VL: not shown | 91.5% | 95.4% | 0.12 µg/mL | no binding (tested: antigen dilutions beginning at 300 nM)

Now from value to binder, other results behind:

CD86% inhibition [2] | CD80% inhibition [3] | Promega assay antagonist (EC50. ug/mL) [4] | Binder | binding result [1]
54.5% |  |  | GIGA-564 (antibody, V domains shown, fucosylation differs between lots (77-95 %); also called antibody A14; aCTLA-4.15) VH: QVQLVESGGGVVQPGRSLRLSCAASGFTFSSYGMHWVRQAPGTGLEWVAVIWYEGRNKYYADPVKGRFTISRDNSKNTLYLQMNSLRDDDTAVYYCARAGDLGAFDIWGQGTMVTVSSA VL: not shown | 
78.8% | 92.1% | 0.17 µg/mL | antibody A7 (antibody, human IgG1, V domains shown, full-length human IgG1 (CHO); also called aCTLA-4.3; CTLA4.A7) VH: QVQLVESGGGVVQPGRSLRLSCAASGFTLSSFGMHWVRQAPGKGLEWVAVIWYDGSNKYYADSVKGRFIISRDNSKTALYLQMNSLRAEDTAVYYCARAHYFGAFDIWGQGTMVTVSS VL: not shown | no binding (tested: antigen dilutions beginning at 300 nM)
 |  | 0.18 µg/mL | antibody A6 (antibody, human IgG1, V domains shown) VH: QVQLVESGGGVVQPGRSLRLSCAASGFTFSSYGMHWVRQAPGKGLEWVAVIWYDGSYKYYADSVKGRFTISRDDSKNTLYLQMSSLRAEDTAVYYCARAPHYAILTGYYEDYWGQGTLVTVSS VL: not shown | 
 |  | 0.13 µg/mL | antibody A1 (antibody, human IgG1, V domains shown) VH: QVQLVESGGGVVQPGRSLRLSCAASGFTFSSFGMHWVRQAPGKGLEWVAVIWYDGRNKYYVDSVKGRFTISRDNSNNTLYLQMNSLRAEDTAVYYCARGEFFGEFFDYWGQGTLVTVSS VL: EIVLTQSPGTLSLSPGEGATLSCRASQSFSSNYLAWYQQKPGQAPRLLIYGASSRATGIPDRFSGSGSGTDFTLTISRLEPEDFAVYYCQQYGTSPFTFGPGTKVDIK | 
 |  | 0.15 µg/mL | antibody A8 (antibody, human IgG1, V domains shown, full-length human IgG1 (CHO); also called aCTLA-4.1; CTLA4.A8) VH: QVQLVESGGGVVQPGRSLRLSCAASGFTFSRYGMHWVRQAPGKGLEWVAVIWYDGRNKYYADSVKGRFTISRDNSKNTLYLQMNSLRAEDTALYSCARAGELGPFDYWGQGTLVTVSS VL: EIVLTQSPGTLSLSPGERATLSCRASQSVSYLAWYQQKPGQAPRLLIYGASSRATGIPDRFSGSGSGTDFTLTISRLEPEDFAVYYCQQYGSSPWTFGQGTKVEIK | no binding (tested: antigen dilutions beginning at 300 nM)
 |  | 0.18 µg/mL | antibody A3 (antibody, human IgG1, V domains shown, full-length human IgG1 (CHO); also called aCTLA-4.2; L3H3) VH: QVQLVESGGGVVQPGRSLRLSCIASGFTFSSYGMHWVRQAPGKGLEWVAVNWYDGSNKHYADSVKGRFTISRDNSKNTLYLQMNSLRAEDTAVYYCARGGVWGPYFDYWGQGTLVTVSS VL: not shown | no binding (tested: antigen dilutions beginning at 300 nM)
 |  | 0.09 µg/mL | antibody A13 (antibody, human IgG1, V domains shown) VH: QVQLVESGGGVVQPGRSLRLSCAASGFTFSSYGMHWVRQAPGKGLEWVAVIWYDGRNKDYADSVKGRITISRDNSKNTLYLQMNSLRAEDTAVYYCARGGLLGPYFDYWGQGTLVTVSS VL: not shown | 

Source: patent US20250289888A1 (GIGAGEN, published 2025)
